Data on 26 molecules can be found in publication PMC3477164, “Improved eIF4E Binding Peptides by Phage Display Guided Design: Plasticity of Interacting Surfaces Yield Collective Effects” (PLoS ONE, 2012).

What is called Kd is the concentration at which binding is half-saturated.

One data set concerns the target T1, eIF4E (Homo sapiens, UniProt P06730).
T1 construct: Full-length human eIF4E was expressed and purified as described previously; made in house
In words: Fluorescence based thermal shift (thermal stability) assay, Sypro Red. As to conditions: shift of eIF4E Tm, 10 µM eIF4E, 100 µM peptide, PBS, 20 to 90°C at 1°C/min, Ex/Em 533/640 nm. In kind it is binding. The method, then: A fluorescence based thermal shift assay was used to screen and rank the rationally designed eIF4E binding derivative peptides. The fluorescent dye Sypro Red (Invitrogen) was used to monitor thermal denaturation of eIF4E. Binding of the dye molecule to eIF4E, as it unfolds due to thermal denaturation, results in a sharp increase in the fluorescence intensity. The midpoint of this transition is termed the Tm. The thermal shift assay was conducted in a LightCycler (Roche). Protein samples studied were made up to a total volume of 50 µl in PBS (Phosphate Buffered Saline) with Sypro Red, (Invitrogen, 5000× DMSO stock) at a 3.125× concentration. The final protein concentration was 10 µM. Protein samples were incubated with derivative peptides at a concentration of 100 µM. […] The fluorescence intensity was measured with Ex/Em:533/640 nm.
The fluorescence data against temperature derived from the LightCycler were fitted to Eq. (1) to obtain ΔHu, ΔCpu, and Tm by nonlinear regression using the program Prism 4.0, Graphpad: [drawing 1] (1) where Ft is the fluorescence intensity at temperature T; Tm is the midpoint temperature of the protein-unfolding transition, Fpre and Fpost are the pretransitional and posttransitional fluorescence intensities, respectively, R is the gas constant, ΔHu is the enthalpy of protein unfolding, and ΔCpu is the heat capacity change on protein unfolding. […]

Data set [1] is described as follows: Solubility of the peptide as observed on handling. It is filed as physicochemical. As to conditions: qualitative observation.
In data set [2] the target is T2, Eukaryotic initiation factor 4E (eIF4E), full-length human (human, UniProt P06730 1-217).
T2 construct: eIF4E, human, full length
Put plainly: fluorescence based thermal shift assay; 10 uM eIF4E with 100 uM peptide in PBS, Sypro Red, heated from 20 to 90 °C at 1 °C/min; Kd estimated from the Tm shift (enthalpy of binding taken to be -5 kcal/mol). As to conditions: both partners purified.

For data set [3], the target named is T2, Eukaryotic initiation factor 4E …. In words: SPR; eIF4E amine coupled to a CM5 chip (about 1000 RU, m7GTP present at immobilisation), peptides injected; 10 mM Hepes pH 7.6, 0.15 M NaCl, 1 mM DTT, 0.1% Tween20, 3% DMSO; Biacore T100; Kd from the equilibrium responses (Keq), 1:1 model, three titrations. As to conditions: both partners purified.
For data set [4] the target is unchanged. In words: SPR; eIF4E amine coupled to a CM5 chip (about 1000 RU, m7GTP present at immobilisation), peptides injected; 10 mM Hepes pH 7.6, 0.15 M NaCl, 1 mM DTT, 0.1% Tween20, 3% DMSO; Biacore T100; Kd from the association and dissociation phases (Kkin), 1:1 model, three titrations. The settings on record: both partners purified. (In SPR one partner is held on a chip, and binding of the other changes the refractive index at the surface.)

Data set [5] shares this target. In words: SPR; eIF4E amine coupled to a CM5 chip (about 1000 RU, m7GTP present at immobilisation), peptides injected; 10 mM Hepes pH 7.6, 0.15 M NaCl, 1 mM DTT, 0.1% Tween20, 3% DMSO; Biacore T100; Kd from the equilibrium responses (Keq), 1:1 model, three titrations. As to conditions: both partners purified. The source holds these as a separate data set.
For data set [6] the target is unchanged. In words: SPR; eIF4E amine coupled to a CM5 chip (about 1000 RU, m7GTP present at immobilisation), peptides injected; 10 mM Hepes pH 7.6, 0.15 M NaCl, 1 mM DTT, 0.1% Tween20, 3% DMSO; Biacore T100; Kd from the association and dissociation phases (Kkin), 1:1 model, three titrations. The settings on record: both partners purified. This is another data set of the same source.

For data set [7] the target is unchanged. Put plainly: SPR; eIF4E amine coupled to a CM5 chip (about 1000 RU, m7GTP present at immobilisation), peptides injected; 10 mM Hepes pH 7.6, 0.15 M NaCl, 1 mM DTT, 0.1% Tween20, 3% DMSO; Biacore T100; Kd from the equilibrium responses (Keq), 1:1 model, three titrations. As to conditions: both partners purified. The source holds these as a separate data set.

For data set [8] the target is unchanged. In words: SPR; eIF4E amine coupled to a CM5 chip (about 1000 RU, m7GTP present at immobilisation), peptides injected; 10 mM Hepes pH 7.6, 0.15 M NaCl, 1 mM DTT, 0.1% Tween20, 3% DMSO; Biacore T100; Kd from the association and dissociation phases (Kkin), 1:1 model, three titrations. The settings on record: both partners purified. The source holds these as a separate data set.

Ends that are not written are not given here.

T2 sequence (P06730 whole entry): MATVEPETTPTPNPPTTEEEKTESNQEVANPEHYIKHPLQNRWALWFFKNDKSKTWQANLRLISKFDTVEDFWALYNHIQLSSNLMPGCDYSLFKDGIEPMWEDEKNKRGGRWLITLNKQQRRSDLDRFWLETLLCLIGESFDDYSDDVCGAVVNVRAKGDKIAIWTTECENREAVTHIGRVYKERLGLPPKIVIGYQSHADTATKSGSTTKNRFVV
T1 sequence (P06730 whole entry): as above

Regarding “SLHYSRDQLVAL [PHAGE, phage display selected 12mer […]]”, the “Thermal Shift (Tm, °C)” value on eIF4E is reported as “no observable shift”. In addition, the “solubility of the peptide (in words)” value in data set [1] is listed as “insoluble”.
KKRYSRDQLVAL [PHAGESOL]: in data set [1], the “solubility of the peptide (in words)” value is reported as “soluble”.

B1: eIF4G1 wild type peptide (peptide)
peptide: KKRYDREFLLGF
notes: also called eIF4G1-WT; eIF4G1 peptide; source: synthetic peptide (Mimotopes), HPLC purified to >90%
As to B1, the figures for the dissociation constant (Kd) in [2], in data set [3] and in data set [4] were 460 nM, 580 ± 16.7 nM and 524 ± 61.6 nM, respectively. Also, the “thermal shift (Tm)” value in data set [2] was 7.03 ± 0.1 °C.

B2: eIF4G1-D5S peptide (peptide)
peptide: KKRYSREFLLGF
notes: eIF4G1 peptide with D5S; also called eIF4G-D5S; source: synthetic peptide (Mimotopes), HPLC purified to >90%
Take B2: the results for the Kd in data set [2], in [3] and in [4] were 100 nM, 103 ± 2.3 nM and 99.9 ± 6.2 nM, respectively. Moreover, in data set [2], the “thermal shift (Tm)” value is 8.97 ± 0.07 °C.

B3: eIF4G1-D5P peptide (peptide)
peptide: KKRYPREFLLGF
notes: eIF4G1 peptide with D5P; source: synthetic peptide (Mimotopes), HPLC purified to >90%
On to B3, for which the figures for the Kd in data set [5] and in data set [6] were 684 ± 13.6 nM and 717 ± 31.2 nM, respectively.

B4: VL-PHAGESOL peptide (peptide)
peptide: KKRYSRDQLLAL
notes: PHAGESOL with V10L; also called PHAGESOL V10L; source: synthetic peptide (Mimotopes), HPLC purified to >90%
For the molecule B4, the dissociation constant Kd in [7] turned out to be 37.2 ± 1.6 nM; in [8] it was 34.7 ± 1.2 nM.

B5: eIF4G1-D5N peptide (peptide)
peptide: KKRYNREFLLGF
notes: eIF4G1 peptide with D5N; source: synthetic peptide (Mimotopes), HPLC purified to >90%
B5: the Kd is 444.5 ± 1.6 nM in data set [5] and 388.9 ± 1.6 nM in data set [6].

B6: eIF4G1-D5E peptide (peptide)
peptide: KKRYEREFLLGF
notes: eIF4G1 peptide with D5E; also called eIF4G-D5E; source: synthetic peptide (Mimotopes), HPLC purified to >90%
Consider B6, for which the dissociation constant (Kd) is 749 ± 57.7 nM in [5] and 692 ± 31.2 nM in data set [6].

B7: VL-PHAGESOL-L12F peptide (peptide)
peptide: KKRYSRDQLLAF
notes: PHAGESOL with V10L and L12F; source: synthetic peptide (Mimotopes), HPLC purified to >90%
As to B7, the Kd in [7] came out at 43.21 ± 0.34 nM; in data set [8] it was 40.7 ± 3.8 nM.

B8: eIF4G1-L10V peptide (peptide)
peptide: KKRYDREFLVGF
notes: eIF4G1 peptide with L10V; source: synthetic peptide (Mimotopes), HPLC purified to >90%
Regarding B8, the results for the Kd in [2], in [3] and in data set [4] were 4400 nM, 4540 ± 622 nM and 2680 ± 444 nM, respectively. The “thermal shift (Tm)” value in data set [2] is 3.9 ± 0.03 °C.

B9: PHAGESOL peptide (peptide)
peptide: KKRYSRDQLVAL
notes: phage display selected 12-mer … with its N-terminal SLH changed to KKR of the eIF4G1 peptide; source: synthetic peptide (Mimotopes), HPLC purified to >90%
B9: the values for the Kd in data set [2], in data set [3] and in data set [4] were 77 nM, 76.7 ± 3.4 nM and 77.1 ± 9 nM, respectively. Moreover, the “thermal shift (Tm)” value in [2] is 9.83 ± 0.1 °C.

B10: eIF4G1-F8Q peptide (peptide)
peptide: KKRYDREQLLGF
notes: eIF4G1 peptide with F8Q; also called eIF4G-F/Q; source: synthetic peptide (Mimotopes), HPLC purified to >90%
Consider B10, for which the Kd is 2000 nM in data set [2], 1630 ± 75.1 nM in [3] and 1780 ± 406 nM in data set [4]. The “thermal shift (Tm)” value in [2] was 5 ± 0.03 °C.

B11: VL-PHAGESOL-Q8F peptide (peptide)
peptide: KKRYSRDFLLAL
notes: PHAGESOL with V10L and Q8F; source: synthetic peptide (Mimotopes), HPLC purified to >90%
For B11, the figures for the Kd in data set [7] and in data set [8] were 49.6 ± 4.3 nM and 47.1 ± 1.5 nM, respectively.

B12: PHAGESOL-D7E peptide (peptide)
peptide: KKRYSREQLVAL
notes: PHAGESOL with D7E; source: synthetic peptide (Mimotopes), HPLC purified to >90%
In the case of B12, the Kd in data set [7] worked out at 51.6 ± 1.8 nM; in data set [8], 52.9 ± 2.1 nM.

B13: eIF4G1-F12L peptide (peptide)
peptide: KKRYDREFLLGL
notes: eIF4G1 peptide with F12L; also called F12L mutant peptide; source: synthetic peptide (Mimotopes), HPLC purified to >90%
Consider B13, for which the dissociation constant (Kd) in data set [2] is 520 nM; in data set [3], 761 ± 63.8 nM; in data set [4] it was 718 ± 98 nM. Further, in data set [2], the “thermal shift (Tm)” value was 6.87 ± 0.12 °C.

B14: eIF4G1-D5G peptide (peptide)
peptide: KKRYGREFLLGF
notes: eIF4G1 peptide with D5G; source: synthetic peptide (Mimotopes), HPLC purified to >90%
Take B14: the Kd in data set [5] was determined as 468 ± 28.1 nM; in [6], 440 ± 26 nM.

B15: eIF4G1-E7D peptide (peptide)
peptide: KKRYDRDFLLGF
notes: eIF4G1 peptide with E7D; also called E7D mutant peptide; source: synthetic peptide (Mimotopes), HPLC purified to >90%
Turning to B15, the values for the Kd in data set [2], in data set [3] and in [4] were 520 nM, 784 ± 21.5 nM and 759 ± 70.7 nM, respectively. Moreover, the “thermal shift (Tm)” value in data set [2] was 6.87 ± 0.18 °C.

B16: PHAGESOL-Q8F/L12F peptide (peptide)
peptide: KKRYSRDFLVAF
notes: PHAGESOL with Q8F and L12F; source: synthetic peptide (Mimotopes), HPLC purified to >90%
As for B16, the figures for the Kd in data set [7] and in [8] were 348 ± 20.9 nM and 374 ± 33.1 nM, respectively.

B17: PHAGESOL-Q8F peptide (peptide)
peptide: KKRYSRDFLVAL
notes: PHAGESOL with Q8F; source: synthetic peptide (Mimotopes), HPLC purified to >90%
For the molecule B17, the Kd in data set [7] is 196 ± 6.3 nM; in data set [8] it was 184 ± 15.4 nM.

B18: PHAGESOL-L12F peptide (peptide)
peptide: KKRYSRDQLVAF
notes: PHAGESOL with L12F; source: synthetic peptide (Mimotopes), HPLC purified to >90%
For the molecule B18, the Kd was 112 ± 2.7 nM in data set [7] and 120 ± 5.3 nM in data set [8].

B19: VL-PHAGESOL-Q8F/L12F peptide (peptide)
peptide: KKRYSRDFLLAF
notes: PHAGESOL with V10L, Q8F and L12F; source: synthetic peptide (Mimotopes), HPLC purified to >90%
As for B19, the Kd is 69.9 ± 6.4 nM in [7] and 62 ± 3.5 nM in data set [8].

B20: eIF4G1-OPT peptide (peptide)
peptide: KKRYSREFLLAF
notes: eIF4G1 peptide with D5 changed to S and G11 changed to A; source: synthetic peptide (Mimotopes), HPLC purified to >90%
Turning to B20, the Kd amounted to 52.2 ± 1.4 nM in data set [7] and 59.4 ± 2.9 nM in data set [8].

B21: eIF4G1-QL peptide (peptide)
peptide: KKRYDREQLLGL
notes: eIF4G1 peptide with F8Q and F12L; also called eIF4G1_F8Q/F12L; source: synthetic peptide (Mimotopes), HPLC purified to >90%
B21: the Kd in data set [7] turned out to be 1090 ± 49.9 nM; in data set [8] it was 1090 ± 106 nM.

B22: eIF4G1-D5T peptide (peptide)
peptide: KKRYTREFLLGF
notes: eIF4G1 peptide with D5T; source: synthetic peptide (Mimotopes), HPLC purified to >90%
On to B22, for which the Kd amounted to 110 ± 1.8 nM in data set [5] and 105 ± 7.2 nM in data set [6].

B23: eIF4G1-D5C peptide (peptide)
peptide: KKRYCREFLLGF
notes: eIF4G1 peptide with D5C; source: synthetic peptide (Mimotopes), HPLC purified to >90%
In the case of B23, the Kd in data set [5] is 436 ± 6.4 nM; in data set [6], 458 ± 19.8 nM.

B24: eIF4G1-G11A peptide (peptide)
peptide: KKRYDREFLLAF
notes: eIF4G1 peptide with G11A; source: synthetic peptide (Mimotopes), HPLC purified to >90%
With B24, the Kd in data set [2] is 200 nM; in [3], 309 ± 11.6 nM; in data set [4], 282 ± 17.6 nM. Besides, the “thermal shift (Tm)” value in data set [2] is 8.13 ± 0.12 °C.
